Patent publication US20250041430A1, “CONJUGATE COMPOUND AND METHOD FOR PRODUCING CONJUGATE COMPOUND” (NIPPON SHOKUBAI CO., LTD., priority 2021, published 2025)

Legend:
[1] = biological target: Exonuclease I (Escherichia coli, UniProt P04995); conditions: room temperature (about 25° C.), 0, 10 and 20 minutes, FIG. 4
Method: (§1) Quantitative analysis of PGLMA-Mal-nucleic acid and an unmodified nucleic acid in a nucleic acid degradation test described below was performed by ion exchange chromatography. At this time, the analysis conditions were as follows. […]
(§2) To a test tube, 42.5 μL (1.00 nmol) of the PGLMA-Mal-nucleic acid solution obtained in the section of [Preparation of conjugate of Polymer 1 and oligonucleic acid], 5 μL of 10× buffer solution (670 mM Glycine-KOH (pH 9.5), 10 mM DTT, 67 mM MgCl2), 2.5 μL of ultrapure water, and 0.5 μL of Exonuclease I (Takara Bio Inc.) (0.05 Unit/L as the final concentration of Exonuclease I in the mixed solution) were added and mixed, and the mixture was allowed to stand still at room temperature (about 25° C.). […] After 0, 10, and 20 minutes from the start of the reaction, the reaction liquid was collected and analyzed under the analysis conditions in the section of [Analysis conditions of conjugate of Polymer 1 and oligonucleic acid] or the section of [Analysis conditions of unmodified oligonucleic acid], and a residual rate of the nucleic acid was calculated from the following formula.

[2] = test system: complement (SC5b-9) in human serum; assay: Evaluation of complement activation (2), MicroVue SC5b-9 Plus EIA; conditions: 37° C., 1 hour, compared with the oligonucleic acid, FIG. 5
Description: Using a microspectrophotometer (NanoDrop ND-1000, Thermo Fisher Scientific Inc.), Conjugates 5 and 6 thus obtained were each diluted with PBS so that the value at a wavelength of 260 nm was 100. On the other hand, a conjugate (PEG-nucleic acid) prepared according to the description in the section of [Preparation of conjugate of polymer and oligonucleic acid] except that maleimide PEG (SUNBRIGHT ME-100MA, NOF CORPORATION) was used instead of Polymer 3, and the oligonucleic acid (base sequence (5′-d (TAGCACCATGGTTT)-3′)) described in Example 2 were each dissolved in 20 μL of PBS so that the value at a wavelength of 260 nm was 100 by the method described above to prepare a control group. Each solution (4 μL) and human serum (purchased from Tennessee Blood Service) (16 μL) were mixed and incubated at 37° C. for 1 hour. […] For each mixed solution, complement activation was evaluated using an enzyme immunoassay kit (MicroVue™ SC5b-9 Plus EIA, Quidel Corporation). The complement concentration was measured according to the manufacturer's protocol, and the measurement was performed on a plate reader (SH-9000, CORONA ELECTRIC Co., Ltd.). A reaction liquid obtained by reacting PBS with human serum was used as a negative control, and a ratio of the measured value of the negative control and a measured value in each reaction liquid was calculated by the following formula.

[3] = biological target: T1, Exonuclease I (Escherichia coli, UniProt P04995); conditions: room temperature (about 25° C.), 0, 10 and 20 minutes, FIG. 4; remark: listed apart in the source
T1 sequence (P04995 whole entry, looked up): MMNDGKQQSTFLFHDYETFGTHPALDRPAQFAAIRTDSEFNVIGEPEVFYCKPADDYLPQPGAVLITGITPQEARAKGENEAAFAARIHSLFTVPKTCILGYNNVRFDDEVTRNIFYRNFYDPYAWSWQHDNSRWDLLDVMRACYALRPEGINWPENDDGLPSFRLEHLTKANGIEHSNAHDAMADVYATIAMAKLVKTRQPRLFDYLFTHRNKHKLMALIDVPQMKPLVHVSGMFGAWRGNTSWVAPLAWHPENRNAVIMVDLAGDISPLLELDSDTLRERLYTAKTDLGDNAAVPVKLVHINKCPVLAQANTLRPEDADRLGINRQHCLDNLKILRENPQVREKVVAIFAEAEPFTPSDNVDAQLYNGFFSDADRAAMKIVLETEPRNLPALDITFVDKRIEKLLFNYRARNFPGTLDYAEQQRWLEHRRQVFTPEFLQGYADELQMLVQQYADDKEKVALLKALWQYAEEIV
Method: as §1, §2

[4] = test system: complement (SC5b-9) in human serum; assay: Evaluation of complement activation (1), MicroVue SC5b-9 Plus EIA; conditions: 37° C., 1 hour, compared with BSA, FIG. 2
Method: Using a microspectrophotometer (NanoDrop ND-1000, Thermo Fisher Scientific Inc.), Conjugates 1 to 4 subjected to ultrafiltration treatment were each diluted with PBS so that the value at a wavelength of 280 nm was 100. On the other hand, a conjugate (PEG-BSA) prepared according to the description in the section of [Preparation of conjugate with protein] except that maleimide PEG (SUNBRIGHT ME-100MA, NOF CORPORATION) was used instead of Polymer 1, and 100 mg of BSA were each dissolved in 1 mL of PBS to prepare a control group. Each solution (40 μL) and human serum (purchased from Tennessee Blood Service) (160 μL) were mixed and incubated at 37° C. for 1 hour. […] For each mixed solution, complement activation was evaluated using an enzyme immunoassay kit (MicroVue™ SC5b-9 Plus EIA, Quidel Corporation). The complement concentration was measured according to the manufacturer's protocol, and the measurement was performed on a plate reader (SH-9000, CORONA ELECTRIC Co., Ltd.). A reaction liquid obtained by reacting PBS with human serum was used as a negative control, and a ratio of the measured value of the negative control and a measured value in each reaction liquid was calculated by the following formula.
(Ratio with negative control)=(Measured value in each sample)÷(Measured value of negative control)

## 5′-d (TAGCACCATGGTTT)-3′ [unmodified nucleic acid]
[1]
  degradation of the nucleic acid (residual rate of the nucleic acid): degradation of the nucleic acid was observed over time

## Conjugate 5: maleimide group of Polymer 1 bonded to the thiol group of the oligonucleic acid 5′-d (TAGCACCATGGTTT)-3′ (DNA, backbone not given here; conjugated to polymer via maleimide-thiol, further chemistry not fully specified)
[2]
  complement activation (ratio with negative control): no large difference from the measured value of the oligonucleic acid
[3]
  degradation of the nucleic acid (residual rate of the nucleic acid): remarkable degradation of the nucleic acid was not observed

## PEG-BSA: conjugate with BSA prepared using maleimide PEG (SUNBRIGHT ME-100MA) instead of Polymer 1
[4]
  complement activation (ratio with negative control): strong complement activation occurred
